For the assay, the target named is T1, optic atrophy 1, Myc-tagged (OPA1-myc) (UniProt O60313-1 88-960).
T1 sequence (looked up): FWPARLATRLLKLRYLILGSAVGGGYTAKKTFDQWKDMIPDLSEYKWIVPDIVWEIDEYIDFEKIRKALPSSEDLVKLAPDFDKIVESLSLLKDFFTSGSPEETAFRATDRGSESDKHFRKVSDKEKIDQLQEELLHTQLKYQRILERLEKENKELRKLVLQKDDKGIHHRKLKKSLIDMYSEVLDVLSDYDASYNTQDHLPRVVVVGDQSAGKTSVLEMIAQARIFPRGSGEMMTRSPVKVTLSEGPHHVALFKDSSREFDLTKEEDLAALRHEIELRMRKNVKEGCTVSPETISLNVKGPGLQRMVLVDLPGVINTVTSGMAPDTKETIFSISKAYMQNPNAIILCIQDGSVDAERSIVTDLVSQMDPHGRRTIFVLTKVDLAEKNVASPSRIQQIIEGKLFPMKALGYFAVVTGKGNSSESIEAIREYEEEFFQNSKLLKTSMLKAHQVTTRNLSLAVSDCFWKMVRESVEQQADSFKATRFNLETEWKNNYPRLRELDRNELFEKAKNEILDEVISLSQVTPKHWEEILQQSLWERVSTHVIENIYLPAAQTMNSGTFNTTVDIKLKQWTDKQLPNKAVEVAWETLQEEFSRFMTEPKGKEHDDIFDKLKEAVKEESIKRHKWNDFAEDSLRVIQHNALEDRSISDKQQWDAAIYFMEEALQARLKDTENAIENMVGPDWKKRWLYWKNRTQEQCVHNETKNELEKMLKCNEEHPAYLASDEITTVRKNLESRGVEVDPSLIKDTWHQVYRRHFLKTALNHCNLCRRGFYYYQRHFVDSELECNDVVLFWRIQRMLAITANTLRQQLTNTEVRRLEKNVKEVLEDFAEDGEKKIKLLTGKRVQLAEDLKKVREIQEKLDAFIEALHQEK
As to the kind of experiment: pull-down.

B1: recombinant GST-fused HIGD-1B (natural protein, human, UniProt Q9P298 1-99, looked up)
chain: MSANRRWWVPPDDEDCVSEKLLRKTRESPLVPIGLGGCLVVAAYRIYRLRSRGSTKMSIHLIHTRVAAQACAVGAIMLGAVYTMYSDYVKRMAQDAGEK
Turning to B1, the binding result is “binds”.

Source of the values: article PMC8185509 (Molecular Medicine Reports, 2021).
